For the series, the target named is T1, TFCP2 (LBP-1c/CP2/LSF) (UniProt Q12800 1-502).
T1 sequence: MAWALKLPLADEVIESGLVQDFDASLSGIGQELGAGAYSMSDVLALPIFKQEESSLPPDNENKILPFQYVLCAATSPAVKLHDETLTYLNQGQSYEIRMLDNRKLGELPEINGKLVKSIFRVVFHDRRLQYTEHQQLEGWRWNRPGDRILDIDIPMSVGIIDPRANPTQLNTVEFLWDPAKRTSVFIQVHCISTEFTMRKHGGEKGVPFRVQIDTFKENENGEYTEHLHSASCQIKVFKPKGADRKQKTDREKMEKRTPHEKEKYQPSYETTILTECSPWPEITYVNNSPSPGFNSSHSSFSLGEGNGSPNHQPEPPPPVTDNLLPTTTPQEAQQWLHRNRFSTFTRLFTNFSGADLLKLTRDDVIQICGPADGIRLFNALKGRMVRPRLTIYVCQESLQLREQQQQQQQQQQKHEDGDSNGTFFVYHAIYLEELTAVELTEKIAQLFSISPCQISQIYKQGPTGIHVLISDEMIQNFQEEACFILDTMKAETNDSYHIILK
As to the kind of experiment: EMSA. In general terms: A gel shift assay detects complexes by their altered migration in electrophoresis.

B1: rs2830077[A] (dsDNA)
DNA 1: GACACGCTGACTTCCAGGCAAAAGCCAGGCACAAGAGAAGC
DNA 2: GCTTCTCTTGTGCCTGGCTTTTGCCTGGAAGTCAGCGTGTC
For the molecule B1, the binding signal is 1 fold band intensity (reference for the C allele, 46% greater).

These data come from PMC5523840.
